In patent US20260008848A1, “ANTI-NECTIN-4 ANTIBODY, AND ANTIBODY-DRUG CONJUGATE AND USE THEREOF” (Bio-Thera Solutions, Ltd., priority 2022, published 2026):

T1: human Nectin-4 extracellular antigen (Nectin-4-His) (Homo sapiens, UniProt Q96NY8)
T1 construct: albumin signal peptide (replaces the native Nectin-4 signal peptide) (N); made in house
T1 sequence (Q96NY8 with tags, fused parts or gaps): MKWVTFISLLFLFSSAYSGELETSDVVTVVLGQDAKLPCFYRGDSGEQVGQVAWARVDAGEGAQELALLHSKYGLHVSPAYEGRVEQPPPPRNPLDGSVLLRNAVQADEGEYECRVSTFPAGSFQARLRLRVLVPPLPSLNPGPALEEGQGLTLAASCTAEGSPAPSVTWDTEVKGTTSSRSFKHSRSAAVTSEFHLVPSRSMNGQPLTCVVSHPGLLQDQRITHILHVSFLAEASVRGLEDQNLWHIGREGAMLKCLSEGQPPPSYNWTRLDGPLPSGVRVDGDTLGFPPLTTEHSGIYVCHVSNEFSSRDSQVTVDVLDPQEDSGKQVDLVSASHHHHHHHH

T2: human Nectin-4 extracellular antigen Nectin-4-His (human, UniProt Q96NY8 32-349)
T2 construct: the secreted protein in the assay lacks the signal peptide
T2 sequence: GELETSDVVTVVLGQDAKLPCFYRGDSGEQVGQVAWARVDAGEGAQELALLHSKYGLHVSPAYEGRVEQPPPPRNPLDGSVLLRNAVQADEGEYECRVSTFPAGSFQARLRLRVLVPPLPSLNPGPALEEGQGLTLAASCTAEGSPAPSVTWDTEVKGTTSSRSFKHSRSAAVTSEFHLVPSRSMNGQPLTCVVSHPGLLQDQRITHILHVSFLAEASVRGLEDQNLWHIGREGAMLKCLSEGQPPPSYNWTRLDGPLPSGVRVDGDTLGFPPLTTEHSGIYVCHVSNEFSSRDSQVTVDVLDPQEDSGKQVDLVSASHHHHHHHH

T3: Nectin-4 on T-47D cells (human ductal breast carcinoma cells) (human, UniProt Q96NY8 32-510)
T3 construct: whole, on cells; that is inferred from the antibodies' specificity
T3 sequence (looked up): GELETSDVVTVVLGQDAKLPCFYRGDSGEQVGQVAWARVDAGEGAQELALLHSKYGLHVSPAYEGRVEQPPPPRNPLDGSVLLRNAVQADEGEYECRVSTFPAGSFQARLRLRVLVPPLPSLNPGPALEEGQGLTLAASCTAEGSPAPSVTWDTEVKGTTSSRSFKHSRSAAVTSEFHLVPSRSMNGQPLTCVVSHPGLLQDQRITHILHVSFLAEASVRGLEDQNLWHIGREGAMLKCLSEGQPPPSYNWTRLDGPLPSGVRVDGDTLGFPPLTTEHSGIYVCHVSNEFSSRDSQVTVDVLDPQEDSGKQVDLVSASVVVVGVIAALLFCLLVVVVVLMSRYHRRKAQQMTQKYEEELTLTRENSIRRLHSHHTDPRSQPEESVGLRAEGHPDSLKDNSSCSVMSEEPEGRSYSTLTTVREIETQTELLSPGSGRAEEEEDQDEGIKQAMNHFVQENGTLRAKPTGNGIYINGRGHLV


Key:
[1] = target: T1, human Nectin-4 extracellular antigen (Nectin-4-His); test: Affinity measurement by BLI (Octet QKe, Protein A biosensor); type: binding
Method: (§1) The affinity of candidate antibodies (ASG-22 and ASG-AM) for the human Nectin-4 extracellular antigen was detected using the bio-layer interferometry (BLI) technology on the Octet platform (Fortebio, Octet QKe).
(§2) Antibodies were loaded onto a Protein A biosensor (Fortebio, 18-5010) at a concentration of 20 μg/mL with a loading time of 60 s. Nectin-4-His antigen concentrations were set at 200 nM, 100 nM, 50 nM, 25 nM, and 0 nM. The antigen association time was 180 s, and the dissociation time was 200 s. Data were then processed and analyzed using Acquisition 8.2 to give affinity constants (see Table 4).

T-47D cells [2] = test: Endocytosis assay by FACS (antibody remaining on cell surface); type: cell-based, human; conditions: 10 μg/mL antibody
Method: The relative quantity of antibodies remaining on the cell surface after incubation at 37° C. for a certain period was detected by FACS to reflect the efficiency of endocytosis. The method is briefly described as follows: T-47D cells (human ductal breast carcinoma cells, sourced from the Cell Bank of the Chinese Academy of Sciences, Cat. No.: TCHu 87) were used. Each test antibody was adjusted to a concentration of 10 μg/mL and co-incubated with cells (at a density of 0.5×10^6 cells/mL) on ice for 1 h for binding. The cells were washed thrice with pre-cooled PBS and then incubated at 37° C. for 0 h, 2 h, and 4 h. The endocytosis reaction was terminated with 0.2% N3Na, and the cells were washed thrice with PBS. Subsequently, a PE-labeled anti-human Fc secondary antibody (Invitrogen 12-4998-82) was added, and the cells were incubated at 4° C. for 30 min. The red fluorescence signal was detected by a flow cytometer.

[3] = target: T1, human Nectin-4 extracellular antigen (Nectin-4-His); test: Affinity measurement by SPR (BIAcore T200, Protein A chip capture); type: binding; conditions: 1:1 model fit
Method: (§3) The candidate antibodies (ASG-22 and ASG-AM) were analyzed for their affinity for the human Nectin-4 extracellular antigen using surface plasmon resonance (SPR) technology (BIAcore: GE Healthcare, T200).
(§4) The capture was conducted on a Protein A chip (Cat #29127556, GE Healthcare): Antibody dilutions ([…]) were directed through the experimental flow channels (Fc2 and Fc4) at a flow rate of 10 μL/min for 10 s. Then antigen Nectin-4-His (prepared from Example 1) dilutions at different concentrations (0 nM, 1.23 nM, 3.7 nM, 11.1 nM, 33.3 nM, and 100 nM) were sequentially introduced with the flow rate adjusted to 30 μL/min through the surfaces of the experimental flow channels (Fc2 and Fc4) and reference flow channels (Fc1 and Fc3) with 120 s of association and 180 s of dissociation. Finally, the chip regenerated in Glycine 1.5. Fitting and analysis were performed using BiaEvaluation 3.2, with a 1:1 model for the fitting.

T-47D cells [4] = test: Binding of antibody to T-47D cells by FACS; design: species or system human; conditions: 3-fold dilutions from 100 nM, 4° C.
Method: (§5) The binding activity of antibody ASG-AM to T-47D cells (human ductal breast carcinoma cells, sourced from the Cell Bank of the Chinese Academy of Sciences, Cat. No.: TCHu 87) was detected by FACS and compared with that of the reference antibody ASG-22. The EC50 of the binding of candidate antibodies to the cells was analyzed using the four-parameter method. The method is briefly described as follows: T-47D cells were digested with pancreatin. Each candidate antibody was serially 3-fold diluted from 100 nM and co-incubated with T-47D cells at 4° C. for 0.5-1 h. Subsequently, a PE-labeled anti-human Fc secondary antibody (Invitrogen, 12-4998-82) was added. The signal intensity of the red fluorescence was detected by a flow cytometer. Graphpad Prism was used for plotting and calculating the EC50.

[5] = target: T2, human Nectin-4 extracellular antigen …; test: BLI (Octet QKe), antibody loaded on Protein A biosensor, Nectin-4-His in solution
Method: as §1, §2

[6] = target: T2, human Nectin-4 extracellular antigen …; test: SPR (BIAcore T200), antibody captured on Protein A chip, Nectin-4-His as analyte, 1:1 fit
Method: as §3, §4

[7] = target: T3, Nectin-4 on T-47D cells (human ductal …); test: FACS on T-47D cells, antibody 3-fold diluted from 100 nM, PE-labeled anti-human Fc secondary antibody, four-parameter fit
Method: as §5, with “EC₅₀” for “EC50”, “EC₅₀.” for “EC50.”

| Rmax [1] | kdis [1] [s⁻¹] | kon [1] [M⁻¹ s⁻¹] | Ka [3] [M⁻¹ s⁻¹] | Rmax [3] [RU] | Kd ([3]; dissociation rate) [s⁻¹] | Kd [5] [nM] | koff [5] [s⁻¹] | kon [5] [M⁻¹ s⁻¹] | Kd [6] [nM] | koff [6] [s⁻¹] | kon [6] [M⁻¹ s⁻¹] | EC50 [7] [nM] | Molecule | red fluorescence signal at 0 h (T-47D cells [2]; 37° C. for 0 h) | Endocytosis at 2 h (T-47D cells [2]; 37° C. for 2 h) [%] | red fluorescence signal at 2 h (T-47D cells [2]; 37° C. for 2 h) | Endocytosis at 4 h (T-47D cells [2]; 37° C. for 4 h) [%] | red fluorescence signal at 4 h (T-47D cells [2]; 37° C. for 4 h) | binding curves to T-47D cells (T-47D cells [4]) |
| --- | --- | --- | --- | --- | --- | --- | --- | --- | --- | --- | --- | --- | --- | --- | --- | --- | --- | --- | --- |
| 0.5303 | 0.00162 | 113000 | 606000 | 164.2 | 0.00523 | – | – | – | – | – | – | – | ASG-22: reference anti-Nectin-4 antibody; heavy chain SEQ ID NO: 12, light chain SEQ ID NO: 17 (Table 2) [reference compound] | 24098.3 | 53.46 | 11216.0 | 74.97 | 6033 | substantially consistent |
| – | – | – | – | – | – | 14.3 | 0.00162 | 113000 | 8.64 | 0.00523 | 606000 | 0.752 | reference antibody ASG-22 (antibody, human IgG1, kappa, V domains shown, Expressed in HEK293F cells) VH: EVQLVESGGGLVQPGGSLRLSCAASGFTFSSYNMNWVRQAPGKGLEWVSYISSSSSTIYYADSVKGRFTISRDNAKNSLSLQMNSLRDEDTAVYYCARAYYYGMDVWGQGTLVTVSS VL: DIQMTQSPSSVSASVGDRVTITCRASQGISGWLAWYQQKPGKAPKFLIYAASTLQSGVPSRFSGSGSGTDFTLTISSLQPEDFATYYCQQANSFPPTFGGGTKVEIKR | – | – | – | – | – | – |
| – | – | – | – | – | – | 0.266 | 2.38e-05 | 89600 | 1.79 | 0.000535 | 298000 | 0.726 | anti-Nectin-4 antibody ASG-AM (antibody, human IgG1, kappa, V domains shown, Expressed in HEK293F cells) VH: EVQLVESGGGLVQPGGSLRLSCAASGFTFSSYNMNWVRQAPGKGLEWVSYISSSSSTIYYADSVKGRFTISRDNAKNSLSLQMNSLRDEDTAVYYCARAYYYGMDVWGQGTLVTVSS VL: DIQMTQSPSSVSASVGDRVTITCRASQGISGWLAWYQQKPGKAPKFLIYAASTLQSGVPSRFSGSGSGTDFTLTISSLQPEDFATYYCQQAGPGWVFGQGTKVEIKR | – | – | – | – | – | – |
